# Measurements: the supplement of paper PMC12338614
# ± gives the uncertainty stated by the source.
# B1: library; numbered along this chain (parent)
# chain: MEVVDPQQLGMFTEGELMSVGMDTFIHRIDSTEVIYQPRRKRAKLIGKYLMGDLLGEGSYGKVKEVLDSETLCRRAVKILKKKKLRRIPNGEANVKKEIQLLRRLRHKNVIQLVDVLYNEEKQKMYMVMEYCVCGMQEMLDSVPEKRFPVCQAHGYFCQLIDGLEYLHSQGIVHKDIKPGNLLLTTGGTLKISDLGVAEALHPFAADDTCRTSQGSPAFQPPEIANGLDTFSGFKVDIWSAGVTLYNITTGLYPFEGDNIYKLFENIGKGSYAIPGDCGPPLSDLLKGMLEYEPAKRFSIRQIRQHSWFRKKHPPAEAPVPIPPSPDTKDRWRSMTVVPYLEDLHGADEDEDLFDIEDDIIYTQDFTVPGQVPEEEASHNGQRRGLPKAVCMNGTEAAQLSTKSRAEGRAPNPARKACSASSKIRRLSACKQQ
# Variants of: B1
# Assay: STK11 functional score (HeLa growth suppression), rescaled enrichment; synonymous median = 1, nonsense median = 0 (normalised score)
# Conditions: with HeLa; variant type: missense
# Procedure: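 Deep mutational scan (TileSeq/POPCode codon randomisation) of full-length codon-optimised STK11 cDNA integrated at a Bxb1 landing pad (AAVS1) in HeLa cells. Restoring functional STK11 suppresses HeLa proliferation. Variant frequencies were measured by NGS before and after about two weeks of growth. The error-corrected enrichment log-ratio was rescaled so that synonymous median = 1 and nonsense median = 0, scores above 1 were compressed, and codon-level and three biological replicate scores were combined; error is the bootstrapped standard error. Scale: synonymous median = 1, nonsense median = 0; below 0.5 = damaging.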
row,Variant,STK11 functional score
1,H154G,0.183 ± 0.15
2,R104D,0.685 ± 0.19
3,S169L,0.7 ± 0.33
4,L67D,0.672 ± 0.33
5,A43V,0.673 ± 0.17
6,V63Q,0.451 ± 0.38
7,Q305V,1.59 ± 0.25
8,S421R,1.44 ± 0.41
9,S232K,1.67 ± 0.14
10,I300W,1.27 ± 0.09
11,C73M,1.7 ± 0.41
12,P6D,1.66 ± 0.16
13,K178A,0.756 ± 0.67
14,V128S,0.466 ± 0.12
15,K81F,0.987 ± 0.086
16,G58F,0.0123 ± 0.09
17,T402M,1.23 ± 0.11
18,N247A,1.37 ± 0.11
19,L80N,0.951 ± 0.37
20,E317L,1.34 ± 0.27
21,C278G,1.08 ± 0.34
22,L386C,1.31 ± 0.42
23,Y131G,0.769 ± 0.28
24,C132P,-0.178 ± 0.083

row,Variant,STK11 functional score
1,E357Q,1.13 ± 0.47
2,H345C,1.2 ± 0.49
3,P280A,0.896 ± 0.17
4,R425V,0.938 ± 0.18
5,Y156D,0.293 ± 0.4
6,F354P,1.42 ± 0.14
7,P179F,0.0795 ± 0.09
8,R333V,1.15 ± 0.64
9,D208N,1.4 ± 0.22
10,V243Q,1.19 ± 0.52
11,Y36W,-0.265 ± 0.082
12,F148H,-0.00697 ± 0.084
13,F219C,0.557 ± 0.2
14,P89W,1.08 ± 0.16
15,I177D,0.0262 ± 0.27
16,Y118G,1.23 ± 0.15
17,Y166T,1.11 ± 0.67
18,R86V,1.4 ± 0.26
19,P324T,1.15 ± 0.23
20,C278K,1.57 ± 0.25
21,R425F,1.11 ± 0.54
22,R384N,1.54 ± 0.21
23,V372K,1.6 ± 0.24
24,H27A,1.19 ± 0.11

row,Variant,STK11 functional score
1,E65F,1.22 ± 0.15
2,G408Y,1.49 ± 0.16
3,L167D,-0.162 ± 0.094
4,H306L,0.85 ± 0.59
5,D53M,0.483 ± 0.2
6,A76I,1.4 ± 0.15
7,C134F,0.425 ± 0.078
8,H168R,0.838 ± 0.47
9,E199F,1.37 ± 0.25
10,G346H,1.6 ± 0.14
11,G288L,0.221 ± 0.13
12,H27I,0.637 ± 0.096
13,I361K,0.624 ± 0.65
14,G91L,1.54 ± 0.13
15,E57F,0.821 ± 0.094
16,E351F,1.19 ± 0.47
17,L286P,-0.27 ± 0.087
18,R147F,0.668 ± 0.1
19,V63I,1.45 ± 0.27
20,G215Y,1.08 ± 0.31
21,I267F,0.659 ± 0.071
22,I177G,-0.017 ± 0.094
23,H202L,0.766 ± 0.12
24,H313V,0.495 ± 0.12

row,Variant,STK11 functional score
1,P254G,0.298 ± 0.11
2,G385V,0.433 ± 0.12
3,K191L,0.262 ± 0.11
4,K178V,0.434 ± 0.32
5,P89R,0.754 ± 0.1
6,L72K,1.08 ± 0.79
7,D208R,1.59 ± 0.26
8,K81T,1.35 ± 0.3
9,Q214N,1.27 ± 0.31
10,S404V,1.53 ± 0.27
11,S232H,1.3 ± 0.14
12,C278W,0.795 ± 0.1
13,A318V,1.11 ± 0.093
14,H306V,0.418 ± 0.39
15,L164I,1.16 ± 0.17
16,D358V,1.46 ± 0.2
17,P222H,0.314 ± 0.11
18,K312W,1.53 ± 0.14
19,I177P,0.166 ± 0.58
20,N412Q,1.37 ± 0.27
21,K423C,1.58 ± 0.16
22,P144A,1.08 ± 0.21
23,M335Q,1.01 ± 0.25
24,C418I,1.41 ± 0.31

row,Variant,STK11 functional score
1,S428I,1.62 ± 0.22
2,R331H,-0.127 ± 0.098
3,P369C,1.31 ± 0.39
4,R28P,0.47 ± 0.12
5,R409F,0.845 ± 0.4
6,P254C,0.821 ± 0.47
7,Q123T,1.27 ± 0.65
8,Y126V,0.762 ± 0.16
9,C278V,0.943 ± 0.11
10,E98M,0.133 ± 0.46
11,G288E,1.5 ± 0.71
12,M11K,1.32 ± 0.44
13,S193I,1.17 ± 0.54
14,V173G,1.15 ± 0.33
15,E374G,1.12 ± 0.33
16,G180W,1.44 ± 0.15
17,D350Q,1.49 ± 0.19
18,K262L,1.13 ± 0.13
19,I88V,0.87 ± 0.1
20,I35W,1.61 ± 0.3
21,G163F,-0.122 ± 0.17
22,G135R,1.38 ± 0.38
23,L102A,0.777 ± 0.23
24,S271Q,1.08 ± 0.65

row,Variant,STK11 functional score
1,V114W,0.805 ± 0.081
2,L386E,1.55 ± 0.22
3,E145I,1.14 ± 0.082
4,R74A,0.0507 ± 0.14
5,L290A,0.0427 ± 0.076
6,R39H,1.13 ± 0.23
7,T336V,1.49 ± 0.14
8,S307R,0.948 ± 0.22
9,L160Q,0.000621 ± 0.18
10,V150Q,0.265 ± 0.12
11,R425W,1.03 ± 0.14
12,T32V,1.41 ± 0.54
13,K41C,1.47 ± 0.3
14,D277H,1.36 ± 0.54
15,V63S,1.27 ± 0.23
16,D350G,1.29 ± 0.28
17,D330A,1.18 ± 0.4
18,S69K,1.31 ± 0.084
19,Y166G,1.23 ± 0.34
20,I322V,1.08 ± 0.23
21,R297V,-0.053 ± 0.093
22,A76Y,0.13 ± 0.083
23,S428N,0.872 ± 0.25
24,G135L,1.52 ± 0.15

row,Variant,STK11 functional score
1,G135N,1.7 ± 0.41
2,K287P,0.105 ± 0.28
3,Q112W,0.604 ± 0.081
4,G242K,0.078 ± 0.73
5,K44A,1.57 ± 0.37
6,L245S,-0.117 ± 0.094
7,A406P,1.21 ± 0.54
8,R75D,1.68 ± 0.28
9,G135P,1.7 ± 0.27
10,S378K,1.6 ± 0.28
11,M125Q,1.68 ± 0.17
12,Y340I,0.334 ± 0.27
13,A198S,0.503 ± 0.23
14,Q302E,0.957 ± 0.21
15,S216P,0.894 ± 0.18
16,Q382I,1.31 ± 0.26
17,G227R,0.588 ± 0.47
18,H345V,1.22 ± 0.44
19,L167S,0.241 ± 0.14
20,A410E,1.34 ± 0.14
21,C391E,1.58 ± 0.28
22,A410Q,1.21 ± 0.37
23,E396S,1.18 ± 0.19
